Measurements taken from PMC3124622.

System: Nc1nc2nc[nH]c2c(=O)[nH]1
Experiment: purified protein, by the assay type
Conditions: guanine as substrate, 20 μM tRNA, 37 °C, pH 7.3

Row | Substance | Km (other: V217G) | kcat (other: V217G) | Km (other: C145V/T146V) | kcat (other: C145V/T146V)
1 | E. coli TGT V217G (Escherichia coli K-12; V217G) | 1.00 (0.10) μM | 0.000259 s⁻¹ | – | –
2 | E. coli TGT C145V/T146V (Escherichia coli K-12; C145V/T146V) | – | – | 0.87 (0.18) μM | 0.00053 s⁻¹
